# Laboratory results taken from US20040176568A1 (GENERAL HOSPITAL, published 2004).
# Like-named read-outs stand apart in the source and are kept apart here. No end group written: not given here.
# T1: human PTH-1 receptor (human, UniProt Q03431 27-593)
# T1 sequence (looked up): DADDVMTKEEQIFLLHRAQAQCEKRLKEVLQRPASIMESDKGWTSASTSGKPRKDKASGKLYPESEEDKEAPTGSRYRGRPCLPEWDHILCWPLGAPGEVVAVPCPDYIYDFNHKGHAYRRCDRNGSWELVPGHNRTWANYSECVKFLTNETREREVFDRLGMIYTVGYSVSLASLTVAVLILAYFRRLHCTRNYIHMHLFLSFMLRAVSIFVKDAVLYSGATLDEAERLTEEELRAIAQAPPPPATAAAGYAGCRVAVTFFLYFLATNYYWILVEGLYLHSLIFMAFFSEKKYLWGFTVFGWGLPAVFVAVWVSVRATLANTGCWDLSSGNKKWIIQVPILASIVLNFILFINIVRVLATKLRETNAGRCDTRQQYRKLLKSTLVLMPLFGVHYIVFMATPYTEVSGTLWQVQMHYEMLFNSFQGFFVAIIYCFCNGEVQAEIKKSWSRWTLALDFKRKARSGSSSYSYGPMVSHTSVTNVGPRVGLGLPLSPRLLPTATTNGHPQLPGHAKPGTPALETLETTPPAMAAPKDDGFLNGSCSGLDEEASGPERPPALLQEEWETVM
# T2: rat PTH-1 receptor (rat, UniProt P25961 27-591)
# T2 construct: whole, on cells; recombinant receptor on cells; also called rat PTH/PTHrP receptor
# T2 sequence (looked up): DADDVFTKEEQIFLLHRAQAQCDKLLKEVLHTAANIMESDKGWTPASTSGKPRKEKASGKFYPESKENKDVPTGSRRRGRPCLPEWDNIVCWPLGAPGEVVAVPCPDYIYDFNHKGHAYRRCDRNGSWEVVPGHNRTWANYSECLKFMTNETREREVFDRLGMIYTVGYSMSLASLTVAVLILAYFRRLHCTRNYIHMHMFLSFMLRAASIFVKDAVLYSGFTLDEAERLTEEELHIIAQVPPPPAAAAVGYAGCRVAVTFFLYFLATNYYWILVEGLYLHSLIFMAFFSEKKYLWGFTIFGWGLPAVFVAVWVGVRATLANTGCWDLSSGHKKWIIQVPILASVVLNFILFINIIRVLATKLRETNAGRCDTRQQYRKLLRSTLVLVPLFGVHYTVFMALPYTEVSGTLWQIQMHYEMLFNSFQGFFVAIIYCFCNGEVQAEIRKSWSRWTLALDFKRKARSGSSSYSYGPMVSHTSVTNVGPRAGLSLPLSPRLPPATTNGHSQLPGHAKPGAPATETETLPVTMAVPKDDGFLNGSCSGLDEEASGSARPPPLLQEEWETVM
# How the values were obtained:
# human PTH-1 receptor [1] = biological target: T1, human PTH-1 receptor; experiment: cell-based or functional assay
# human PTH-1 receptor [2] = biological target: T1, human PTH-1 receptor; experiment: radioligand binding, HKRK B7 cells (human PTH-1 receptor)
# human PTH-1 receptor [3] = biological target: T1, human PTH-1 receptor; experiment: cell-based or functional assay; remark: listed apart in the source
# rat PTH-1 receptor [4] = biological target: T2, rat PTH-1 receptor; experiment: radioligand competition, EW5 cells (rat PTH-1 receptor)
# From the text: (§1) Cell layers were washed three times before solubilization for determination of cell-associated radioactivity.
# human PTH-1 receptor [5] = biological target: T1, human PTH-1 receptor; experiment: cell-based or functional assay; remark: listed apart in the source
# human PTH-1 receptor [6] = biological target: T1, human PTH-1 receptor; experiment: radioligand competition, HKRK B7 cells (human PTH-1 receptor)
# From the text: as §1
# rat PTH-1 receptor [7] = biological target: T2, rat PTH-1 receptor; experiment: radioligand competition, EW5 cells (rat) against HKRK B7 cells (human)
# From the text: as §1
# rat PTH-1 receptor [8] = biological target: T2, rat PTH-1 receptor; experiment: cell-based or functional assay
molecule,measurement,setting,value
desamino-hPTHrP(1-36) (from UniProt P12272 37-72) (peptide),"PLC activation, percent of basal at 1000 nM peptide, HKRK B7 cells (percent of basal)",human PTH-1 receptor [1],101
desamino[Ala^1]hPTH-(1-34) (from UniProt P01270 32-65) (peptide),"PLC Activity (% Basal), 1000 nM peptide, transfected HEK-293 cells",human PTH-1 receptor [1],106 % Basal
desamino[Gly^1]hPTH-(1-34) (from UniProt P01270 32-65) (peptide),"PLC Activity (% Basal), 1000 nM peptide, transfected HEK-293 cells",human PTH-1 receptor [1],108 % Basal
"^125I-[Nle^8,21, Tyr^34]rat PTH-(1-34) (from UniProt P04089 32-65) (peptide)","cell-associated radioactivity, basal (no competitor)",human PTH-1 receptor [2],25500 cpm/well
hPTHrP(1-36) (from UniProt P12272 37-72) (peptide),"PLC activation, percent of basal at 1000 nM peptide, HKRK B7 cells (percent of basal)",human PTH-1 receptor [1],178
[Tyr^0]hPTH-(1-34) (from UniProt P01270 32-65) (peptide),"PLC activity, percent of basal at 1000 nM peptide (percent of basal)",human PTH-1 receptor [1],105
SVSEIQLMHNLGKHLNSMERVEWLRKKL-NH2 [hPTH-(1-28)],"PLC Activity (% Basal), 1000 nM peptide, transfected HEK-293 cells",human PTH-1 receptor [3],305 % Basal
same,binding result,rat PTH-1 receptor [4],binds
same,"EC50 of AC activation, HKRK B7 cells",human PTH-1 receptor [5],1 nM
same,"EC50 of PLC activation, HKRK B7 cells",human PTH-1 receptor [5],6000 nM
same,fold loss of PLC potency against hPTH-(1-29),human PTH-1 receptor [5],~5 fold
same,IC50,human PTH-1 receptor [6],1000 nM
"AVSEIQLMHNLGKHLNSMRRVEWLRKKL-NH2 [[Ala^1,Arg^19]hPTH-(1-28)]","EC50 for PLC activation, HKRK B7 cells",human PTH-1 receptor [5],200 nM
same,fold improvement of EC50 for PLC activation over [Ala^1]hPTH-(1-28),human PTH-1 receptor [5],5 fold
AVSEIQLMHNLGKHLNSMERVEWLRKKL-NH2 [[Ala^1]hPTH-(1-28)],"EC50 for PLC activation, HKRK B7 cells",human PTH-1 receptor [5],1000 nM
SVSEIQLMHNLGKHLNSMRRVEWLRKKL-NH2 (Analog of hPTH-(1-28)) [[Arg^19]hPTH-(1-28)],"EC50 of PLC activation, HKRK B7 cells",human PTH-1 receptor [5],300 nM
same,IC50,human PTH-1 receptor [6],100 nM
VSEIQLMHNLGKHLNSMERVEWLRKKLQDVHNY-NH2 [hPTH-(2-34)],"PLC Activity (% Basal), 1000 nM peptide, transfected HEK-293 cells",human PTH-1 receptor [3],88 % Basal
"AVSEIQLMHNLGKHLNSMRRVEWLRKK-NH2 [[Ala^1,Arg^19]hPTH-(1-27)]",fold improvement of EC50 for AC activation over hPTH-(1-27),human PTH-1 receptor [5],10 fold
SVSEIQLMHNLGKHLNSMERVEWLRKK-NH2 [hPTH-(1-27)],"PLC Activity (% Basal), 1000 nM peptide, transfected HEK-293 cells",human PTH-1 receptor [3],95 % Basal
same,"EC50 of AC activation, HKRK B7 cells",human PTH-1 receptor [5],100 nM
same,fold loss of AC activity on removal of Leu^28,human PTH-1 receptor [5],~100 fold
SVSEIQLMHNLGKHLNSMERVEWLRKKLQDVHNY-NH2 [hPTH-(1-34)],"PLC Activity (% Basal), 1000 nM peptide, transfected HEK-293 cells",human PTH-1 receptor [3],854 % Basal
"SVSEIQLMHNLGKHLNSMERVEWLRKKLQ-NH2 (peptide, UniProt P01270 32-60, looked up) [hPTH-(1-29)]","EC50 of PLC activation (IP3 formation), HKRK B7 cells",human PTH-1 receptor [5],1000 nM
SVSEIQLMHNLGKHLNSMERVEWLRK-NH2 [hPTH-(1-26)],fold loss of AC potency against hPTH-(1-27),human PTH-1 receptor [5],10 fold
GVSEIQLMHNLGKHLNSMERVEWLRKKL-NH2 (Analog of hPTH-(1-28)) [[Gly^1]hPTH-(1-28)],fold enhancement of binding affinity by the Gly^1 substitution (against hPTH-(1-28)),rat PTH-1 receptor [4],2 fold
same,fold impairment of binding by the Gly^1 substitution (against hPTH-(1-28)),human PTH-1 receptor [6],~3 fold
"GVSEIQLMHNLGKHLNSMRRVEWLRKKL-NH2 (Analog of hPTH-(1-28)) [[Gly^1,Arg^19]hPTH-(1-28)]",fold enhancement of binding affinity by the Gly^1 substitution (against [Arg^19]hPTH-(1-28)),rat PTH-1 receptor [4],2 fold
same,fold impairment of binding affinity relative to hPTH-(1-34),rat PTH-1 receptor [4],~6 fold
same,fold lower binding affinity than hPTH-(1-34),rat PTH-1 receptor [4],7 fold
same,fold greater binding affinity than for the human PTH-1 receptor,rat PTH-1 receptor [7],10 fold
same,"fold impairment of EC50 for AC relative to hPTH-(1-34), EW5 cells",rat PTH-1 receptor [8],~6 fold
same,selectivity for AC vs. PLC,rat PTH-1 receptor [8],> 10 fold
same,"fold reduction of PLC potency, HKRK B7 cells",human PTH-1 receptor [5],~100 fold
same,"selectivity for activation of AC (vs. PLC), relative to hPTH-(1-34)",human PTH-1 receptor [5],> 40 fold
same,fold impairment of binding by the Gly^1 substitution (against [Arg^19]hPTH-(1-28)),human PTH-1 receptor [6],~3 fold
same,fold improvement in binding affinity over [Gly^1]hPTH-(1-28),human PTH-1 receptor [6],5 fold
same,fold lower binding affinity than hPTH(1-34),human PTH-1 receptor [6],30 fold
same,fold reduction of binding relative to hPTH-(1-34),human PTH-1 receptor [6],~40 fold
